{"source": "patent US7494645B2", "about": "“Lipid phosphate phosphatases and uses thereof for treating neuronal diseases” (Charite Universitaetsmedzin-Berlin, priority 2002, dated 2009)", "molecules": {"B1": {"name": "PRG-1: plasticity-related gene 1 protein, lipid phosphate phosphatase; rat full length clone expressed by transfection (protein)", "chain": "MQRAGSSGARGECDISGTGRLRLEQAARLGGRAVHTSPTGGLGARQVAGMSAKERPKGKVIKDSVTLLPCFYFVELPILASSVVSLYFLELTDVFKPVHSGFSCYDRSLSMPYIEPTQEAIPFLMLLSLAFAGPAITIMVGEGILYCCLSKRRNGAGLEPNINAGGCNFNSFLRRAVRFVGVHVVGLCSTALITDIIQLATGYQAPYFLTVCKPMYTSLEGSCKENSYIVEEICSGSDLTVINNGKKSFPSQHATLAAFAAVYVSMYFNSTLTDSSKLLKPLLVFTFIICGIICGLTRITQYKNHPVDVYCGFLIGGGIALYLGLYAVGNFLPSEDSMLQHRDALRSLTDLNQDPSRVLSAKNGSSGDGIAHTEGILNRNHRDASSLTNLKRANADVEIITPRSPMGKESMVTFSNTLPRANTPSVEDPVRRNASIHASMDSARSKQLLTQWKSKNESRKMSLQVMDSEPEGQSPPRSIEMRSSSEPSRVGVNGDHHVPGNQYLKIQPGTVPGCNNSMPAGPRVSIQSRPGSSQLVHIPEETQENISTSPKSSSARAKWLKAAEKTVACNRGNNQPRIMQVIAMSKQQGVLQSSPKNAEGSTVTCTGSIRYKTLTDHEPSGIVRVEAHPENNRPIIQIPSSTEGEGSGSWKWKAPEKSSLRQTYELNDLNRDSESCESLKDSFGSGDRKRKHIDSNEHHHHGITTIRVTPVEGSEIGSETLSVSSSRDSTLRRKGNIILIPERSNSPENTRNIFYKGTSPTRPYKD"}}, "key": {"[1]": {"tested_on": "entorhinal explants", "test": "LPA induced neurite retraction in entorhinal explants", "format": "cell-based, rat", "conditions": "100 nmol/l LPA, 10 min", "procedure": "Entorhinal explants from E16 and P0 rat pups were obtained from timed-pregnant Wistar rats and were cultivated as described (N. E. Savaskan (2000) Eur. I. Neurosci 12:1024-1032). In brief, entorhinal cortex was carefully dissected from the hippocampal anlage and the meninges were removed. Explants were gently transferred with a fire-polished Pasteur pipette into 12-well plates and cultivated on baked glass cover slides coated with laminin and poly-L-lysin (25 μg/ml and 10 μg/ml, respectively) in culture medium containing selenium-defined fetal bovine serum [5%] (N. E. Savaskan et al (2000) FASEB J. e-published) (Neurobasal medium plus 25 μg/ml Penicillin/Streptomycin; B-27 supplement). After 24 h, culture medium was exchanged and cultivation was further performed in serum-free Neurobasalmedium for 20 h. Serum-starved explants were treated with 100 nmol/l oleoyl-LPA (5 mmol/l stock solution in ultra-filtrated water) for 10 min or with vehicle (0.9% NaCl) and then fixed in 4% paraformaldehyde for 20 min. For F-actin staining, fixed tissues were incubated with TRITC-phalloidin (0.1 μg/ml, Sigma, Germany) for 40 min, followed by incubation with HOECHST 33258 dye (1:20,000, Sigma, Germany) for 5 min at room temperature. […] Images were taken with a CCD camera on an Olympus BX-50 microscope and quantification was performed using the Meta Morph analysis system (Universal Imaging, PA). […]"}, "[2]": {"tested_on": "N1E-115 mouse neuroblastoma cells", "test": "LPA induced neurite retraction and protection in transfected N1E-115 cells", "format": "cell-based", "text": "The rat PRG-1 full length clone was amplified by Marathon PCR (Clontech, USA) from adult rat hippocampus RNA (SEQ ID No. 17). For transfection studies, the full length PRG-1 coding sequence was fused to EGFP (pEGFP-N1 vector Clontech, USA). The PRG-1^His/Lys exchange mutant at the catalytic histidine (His-252) was introduced in the same protein fusion vector by site specific mutagenesis (CAT to AAG).\n(§1) N1E-115 mouse neuroblastoma cells (ATCC: CRL-2263) were routinely grown in DMEM medium supplemented with selenium-defined fetal bovine serum (10%). The cells were seeded on baked glass cover slides at a density of 10,000 cells/cm^2. The next day, cells were transfected with the cationic lipids procedure (FuGene6, Roche, Germany) and cultivated for 24 h. Serum-starvation was performed for 20 h in DMEM medium, followed by treatment with 10 μmol/l oleoyl-LPA or vehicle (0.9% sodium chloride) (K. Jalink et al (1993) Cell Growth Differ. 4:247-255). After 10 min, cells were fixed in 4% paraformaldehyde for 20 min at room temperature and further analysis processed as described above. Images were taken with a CCD camera on an Olympus BX-50 microscope. Quantification was performed with the Meta Morph analysis system (University Imaging, PA). For statistical analysis Statview II was used (Abacus, USA). The effects of transfection on cell viability were analysed by MTT assay and propidium iodide staining (Savaskan N. E. et al. (2002) FASEB J. 17:112-114)."}, "[3]": {"tested_on": "PRG-3 mRNA", "test": "PRG-3 mRNA in situ hybridization after kainate administration in vivo", "set-up": "species or system rat", "conditions": "10 mg/kg i.p.", "text": "For hybridization, we used two antisense oligonucleotides which both gave essentially the same hybridization signal: 5′-GCAGAGGTCTGAATTCTAGTGTCTATCGTTATAGTTCCTTAACAGTGTGGG-3′ (SEQ ID NO. 37) and 5′-CATCCTTCTGTAGTAGCTTTCTGCCTCTGCCTCCACTTCTCTCT-3′ (SEQ ID NO. 38) complementary to rat PRG-3 sequence (SEQ ID NO. 23). The oligonucleotide was synthesized by Metabion (Munich, Germany). The specificity was confirmed by a BLAST GenBank search to rule out cross-hybridization with other genes. We used the protocol as previously described (Brauer et al., 2001, supra).\nSix rats, weighing 200-300 g, were weight-paired (±10 g per pair). These animals received a single i.p. injection of kainic acid (10 mg/kg bodyweight; from Ocean Products Int., Canada) freshly dissolved in 0.9% saline. Behavior was then observed constantly for 24 hr via video time lapse recordings. […] Severity of seizures was scored for 4 h after kainate injection using the classification of Zhang et al. […] Nissl-positive undamaged neurons were counted in five coronal brain sections per animal (sections were chosen by unbiased sampling), and the mean number of cells per section were determined such that the value obtained for each rat represents an average total number of neurons counted per section (250 μm by 250 μm square in the middle of the CA1 region). […]"}, "[4]": {"tested_on": "N1E-115 cells", "test": "Ecto-phosphatase activity (extracellular LPA degradation) in transfected N1E-115 cells", "format": "cell-based, mouse", "procedure": "The assay procedures used were adapted from those described in Imai et al. (2000) J. Clin. Endocrinol. Metab 85:3370-3375 and Hooks S. B. et al. (2001) J. Biol. Chem. 276:4611-4621. Briefly, transfected cells were harvested after serum-free cultivation for 20 h by scraping in lysis buffer (containing 20 mmol/l HEPES pH 7.4, 1 mmol/l NaHCO3, 500 μmol/l DTT, 1 mmol/l EGTA) and sonicated with two strokes (Bandolin GM 70, Germany). After centrifugation at 800×g, the supernatant was diluted in lysis buffer and centrifuged at 100,000×g for 1 h. Alternatively, the supernatant was topped on a sucrose step gradient (50% and 5%) and centrifuged at 100,000×g for 1 h (Savaskan, N. E. et al. (2000) Eur. J. Neurosci. 12:1024-1032. The resulting pellet and interphase, respectively, were re-homogenized and centrifuged again at 100,000×g for 1 h. The crude membrane pellet was re-suspended in reaction buffer (50 mmol/l HEPES pH 7,5; 1 mmol/l EGTA) and protein concentration was determined spectroscopically by Bradford protein assay (Amersham, Germany). Assessment of LPA metabolism was performed with exogenous ^3H-oleoeyl-LPA (Perkin Elmer, Germany) measuring ^3H-oleoeyl-glycerol production. […] All fractions of dried plates were scintillation counted and compared with authentic standards (LPA, 1-monoolein, 1,2-monoolein, oleic acid). […]"}, "[5]": {"tested_on": "N1E-115 cells", "test": "Cell viability of N1E-115 cells after transfection (MTT assay, propidium iodide staining)", "format": "cell-based, mouse", "conditions": "48-72 h after transfection", "procedure": "as §1"}, "[6]": {"tested_on": "hyperphosphorylated tau protein", "test": "Tau hyperphosphorylation in neurons overexpressing PRG-1 (cell culture model)", "format": "cell-based", "text": "Alzheimer's disease is characterized by intracellular neurofibrillary tangle formation formed by tau-based paired helical filaments (PHF) and by extracellular beta-amyloid plaques. The degree of Alzheimer dementia correlates well with the severity of PHF occurrence. These PHF are formed by hyperphosphorylated tau formation. […] To gain insights into the functional role of PRG-1 in Alzheimer's pathology we used an established cell culture model."}}, "note": "Entries after “also recorded” stand apart in the source; their conditions may differ."}
{"molecule": "1- or 2-oleoyl-lysophosphatidic acid [LPA]", "values": [{"measurement": "neurite retraction in embryonic entorhinal explants", "setting": "[1]; E16 explants (no PRG-1 expression), n=20", "value": "rapid neurite retraction"}, {"measurement": "neurite retraction in postnatal entorhinal explants", "setting": "[1]; P0 explants (express PRG-1), n=22", "value": "did not differ significantly from vehicle treated control cultures"}, {"measurement": "LPA-induced growth cone collapse of N1E-115 cells", "setting": "[2]; eGFP-only transfected cells, 10 μmol/l LPA, 10 min", "value": "uniformly sensitive"}]}
{"molecule": "C=C(C)[C@H]1CN[C@H](C(=O)O)[C@H]1CC(=O)O", "note": "[kainic acid]", "values": [{"measurement": "PRG-3 mRNA expression in hippocampus", "setting": "[3]; five days after kainic acid application", "value": "comparable levels to the adult non-treated controls"}, {"measurement": "PRG-3 mRNA expression in hippocampus", "setting": "[3]; six hours after kainic acid application", "value": "rapid PRG-3 repression"}]}
{"molecule": "B1", "values": [{"measurement": "increase of LPA needed to overcome resistance against growth cone collapse", "setting": "[2]; PRG-1 overexpressing N1E-115 cells, LPA dose response", "value": 10, "unit": "fold"}, {"measurement": "protection against LPA-induced growth cone collapse / retraction of processes", "setting": "[2]; transfected N1E-115 cells, 10 μmol/l LPA", "value": "resistance of N1E-115 cells to LPA-induced growth cone collapse; also recorded: did not prevent CPA-induced retraction of processes"}, {"measurement": "LPA-induced actin-polymerization", "setting": "[2]; transfected N1E-115 cells, phalloidin staining", "value": "prevented LPA-induced actin-polymerization"}, {"measurement": "increase in ecto-phosphatase activity compared to eGFP transfection alone", "setting": "[4]", "value": 5, "unit": "fold"}, {"measurement": "cell viability", "setting": "[5]", "value": "unaffected"}, {"measurement": "hyperphosphorylated tau and PHF formation", "setting": "[6]; PRG-1 overexpression, tau hyperphosphorylation induced with okadaic acid or LPA", "value": "significantly decrease"}, {"measurement": "hyperphosphorylated tau protein", "setting": "[6]; neurons overexpressing PRG-1 vs control transfected cells", "value": "significant reduction"}]}
